Entries after “also recorded” stand apart in the source; their conditions may differ.

A short description of data set [1]: Distribution and radioautography of ^55Fe after ^55Fe:Sid:NGAL injection. Type of data set: in vivo, mice. The note with it: non-protein bound ^55Fe citrate.
Data set [2] deals with mouse model of ATN or ischemia/reperfusion injury. As to the kind of experiment: Mouse model of ATN (30 min clamp, contralateral nephrectomy): plasma creatinine. Type of data set: in vivo, mice. The note with it: mice, 30 minutes of ischemia; 10 μg protein or single dose, 15 min prior to ischemia. The protocol: Male C57BL/6 mice (20-25 gr; Charles River) were anesthetized with intraperitoneal pentobarbital (50 mg/kg) and placed on a heating pad under a warming light to maintain 37© core body temperature. Kidneys were exposed through an abdominal section and the right kidney was either removed or its vascular pedicle and ureter ligated. The vascular pedicle of the left kidney or both kidneys was clamped by a microaneurysm clip (Kent Scientific) for 30 minutes after right nephrectomy. This period of ischemia generated reproducible renal injury but minimized mortality. During the procedure, PBS (0.5 ml) was used to dampen the peritoneum. The animal was closed with 5-0 Nylon. Saline, NGAL, retinol-loaded retinol binding protein (RBP), enterochelin, or desferroxamine mesylate (DFO) were injected into the peritoneum or subcutaneously 15 min. prior to ischemia or 1-2 hr after reperfusion.
After 6 or 24 hr of reperfusion, heparinized plasma, urine and kidney samples were obtained to measure NGAL (polyclonal 1:500), Heme oxygenase-1 (Stressgen, 1:2000), E-cadherin (BD Transduction Labs, 1:2000), N-cadherin (BD Transduction Labs, 1:3000) and GAPDH (Chemicon International, 1:3000) using immunoblots. Plasma was also used for creatinine and blood urea nitrogen colorimetric assays. Sagittal sections of the kidney were fixed in 4% formalin, or were snap frozen for mRNA and protein analysis. Paraffin-embedded sections (5 μm) were stained with hematoxylin-eosin or by an in situ kit (Fluorescein-TUNEL, Roche) for apoptotic nuclei or for total nuclei (Toprol, Molecular Probes). For cell proliferation analysis, BrdU was injected into the peritoneum 1 hour before sacrifice, and cryostat sections were stained with anti-BrdU (Roche) according to the manufacturer.

In data set [3] the target is NGAL (Homo sapiens, UniProt P80188). The conditions noted are these: read-out: affinity of siderophore binding to NGAL (calyx); cited from earlier work.
Data set [4] can be described thus: NGAL trafficking after intraperitoneal or subcutaneous injection. Type of data set: in vivo, mice. The text has this:
Recombinant human and mouse GST-NGAL were expressed in BL21 or XL1-Blue strains of E. coli (Stratagene) with additional ferric sulfate (50 Micro Molar, Sigma-Aldrich Co.). NGAL was isolated using Glutathione Sepharose 4B beads (Amersham Biosciences), eluted by thrombin cleavage (Sigma-Aldrich Co.; St. Louis, Mo.) and then further purified by gel filtration (Superdex75, SMART system, Amersham Biosciences) and examined by Coomassie gels (Biorad). BL-21 derived NGAL was loaded with iron free or iron saturated enterochelin, a siderophore (EMC Microcollections) using a 5 fold molar excess. Unbound siderophore (0.7 KD) was removed by washing (Microcon YM-10) with PBS. To produce ^55Fe or gallium (Ga) loaded NGAL we incubated the iron-free enterochelin NGAL complex with equimolar ^55Fe (18mCi) or Ga in NaCl (150 mM) Hepes (20 mM; pH 7.4) and the complex was washed 3 times (10K filter). Iodobeads (Pierce) were used to label NGAL with ^125I and unincorporated ^125I was removed by gel filtration (PD-10 column) followed by extensive dialysis (7 kDa cut off membrane, Pierce) against PBS. Alexa-568 and fluorescein isothiocyanate (Molecular Probes) was coupled to NGAL, according to the manufacturer, and then extensively dialyzed. Protein concentration was determined by Coomassie gels in comparison with bovine serum albumin standard.
To detect delivery of NGAL to the kidney rNGAL (10 or 100 μg), Alexa 568-NGAL (100 μg), ^125I-NGAL ([…], 2×10^6 cpm), or ^55Fe loaded enterochelin-NGAL (10 μg, 1×10^6 cpm) was injected into the peritoneum and blood, urine, kidney and liver samples were obtained. NGAL was detected by immunoblot. Alexa-568 NGAL was detected by confocal microscopy (LSM Meta Detector) and NGAL mediated iron trafficking was detected by scintillation counter and by light microscopic radioautography of Epon embedded kidneys. Slides were exposed to emulsion (Polyscience) for 1 week and then developed with Microdol and counterstained with Toluidine blue. To detect lysosomes in the proximal tubule, mice were injected with Fluorescein Dextran (46 kD; 0.5 mg; Sigma) 24 hours before Alexa 568 NGAL injections. LAMP1 (Santa Cruz) was detected in cryostat sections of 4% paraformaldehyde fixed kidneys.

For data set [5] the following is noted: previously reported; cited from earlier work.

For `O=C([O-])CC(O)(CC(=O)[O-])C(=O)[O-].[Fe+3]` [^55Fe citrate], in data set [1], the “iron recovered in the kidney” value amounted to 1.5%.

Regarding `O=C(N[C@H]1COC(=O)[C@@H](NC(=O)c2cccc(O)c2O)COC(=O)[C@@H](NC(=O)c2cccc(O)c2O)COC1=O)c1cccc(O)c1O` [Sid, enterochelin, reference compound], in data set [2], the “protection against ATN (creatinine, FIG. 17A)” value was “failed to protect against ATN; also recorded: ineffective”. The Kd in data set [3] was 400 pM.

B1: [^125I]-NGAL: NGAL labelled with ^125I using Iodobeads (protein, UniProt P11672 21-200, looked up)
Neutrophil …: QDSTQNLIPAPSLLTVPLQPDFRSDQFRGRWYVVGLAGNAVQKKTEGSFTMYSTIYELQENNSYNVTSILVRDQDQGCRYWIRTFVPSSRAGQFTLGNMHRYPQVQSYNVQVATTDYNQFAMVFFRKTSENKQYFKITLYGRTKELSPELKERFTRFAKSLGLKDDNIIFSVPTDQCIDN
modifications: 125I label
notes: NGAL labelled with ^125I using Iodobeads
In the case of B1, the “TCA precipitable fraction, kidney-localized protein” value in data set [4] (kidney) worked out at 70%. For the same molecule, in data set [4] (one hour time-point), the “kidney versus liver content per mg protein” value came out at 13 fold. Also, the TCA precipitable fraction in data set [4] (plasma) is given as 35%; in data set [4] (urine), 20%.

B2: human NGAL: human NGAL of previously reported clearance data (protein, UniProt P80188 21-198, looked up)
Neutrophil …: QDSTSDLIPAPPLSKVPLQQNFQDNQFQGKWYVVGLAGNAILREDKDPQKMYATIYELKEDKSYNVTSVLFRKKKCDYWIRTFVPGCQPGEFTLGNIKSYPGLTSYLVRVVSTNYNQHAMVFFKKVSQNREYFKITLYGRTKELTSELKENFIRFSKSLGLPENHIVFPVPIDQCIDG
In the case of B2, in data set [5], the “kidney versus liver level per mg protein” value is reported as 12 fold and the “t1/2 of clearance from the circulation” value was 10 min.

(Values after patent publication US8247376B2, “NGAL for reduction and amelioration of ischemic and nephrotoxic injuries” (The Trustees of Columbia University, priority 2004, dated 2012).)
